From patent publication US20230011916A1 (BEIGENE, published 2023) come the findings set out here.

The target of experiment [1] is T1, full-length human OX40 expressed on HuT78 cells (HuT78/OX40) (human, UniProt P43489 29-277).
T1 sequence: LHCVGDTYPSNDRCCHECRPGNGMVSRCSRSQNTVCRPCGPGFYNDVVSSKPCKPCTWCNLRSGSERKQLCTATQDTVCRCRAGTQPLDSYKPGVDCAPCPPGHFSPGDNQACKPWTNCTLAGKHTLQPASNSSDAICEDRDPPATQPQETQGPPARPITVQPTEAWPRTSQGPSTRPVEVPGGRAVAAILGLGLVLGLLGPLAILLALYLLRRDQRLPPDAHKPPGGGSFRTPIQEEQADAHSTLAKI
Put plainly: FACS; cells not named on the sheet, HuT78/OX40 cells as in Example 5.

For experiment [2], the target named is T2, recombinant OX40 protein with a His tag (Cat: 10481-H08H, Sino Biological) (UniProt P43489 29-216).
T2 construct: Bought protein; also called OX40-His (bought); not shown: His tag
T2 sequence (looked up): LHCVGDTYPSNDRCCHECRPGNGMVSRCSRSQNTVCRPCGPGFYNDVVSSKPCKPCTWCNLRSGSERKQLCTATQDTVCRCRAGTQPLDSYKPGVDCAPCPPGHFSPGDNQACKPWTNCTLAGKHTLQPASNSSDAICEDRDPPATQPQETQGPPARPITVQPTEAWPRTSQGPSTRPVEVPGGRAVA
The experiment can be described thus: Biacore (SPR); antigen not named on the sheet, OX40-His as in Example 4. On the technique in general: SPR reads the build-up and loss of mass on a sensor chip optically.

In experiment [3] the target is T1, full-length human OX40 expressed on …. Put plainly: FACS; against 445-2. A general note: A flow cytometer gives signals particle by particle.
For experiment [4], the target named is T3, human OX40/IgG1 fusion H153A (human, UniProt P43489 29-216).
T3 construct: not shown: Fc domain of human IgG1 wild type heavy chain
T3 chain: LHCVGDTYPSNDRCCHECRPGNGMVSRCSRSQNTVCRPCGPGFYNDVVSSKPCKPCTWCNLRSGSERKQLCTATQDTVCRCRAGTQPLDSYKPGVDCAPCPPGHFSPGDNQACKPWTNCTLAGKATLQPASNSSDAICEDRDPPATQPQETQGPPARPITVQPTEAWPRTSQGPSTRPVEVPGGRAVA
Put plainly: SPR, BIAcore 8K, OX40/IgG1 mutant immobilized, 445-3 Fab flowed. As to the method: Briefly, OX40 mutants and wild type OX40 were immobilized on a CM5 biosensor chip (Cat: BR100530, GE Life Sciences) using EDC and NHS. […] The changes in surface plasmon resonance signals were analyzed to calculate the association rates (ka) and dissociation rates (kd) by using the one-to-one Langmuir binding model (BIA Evaluation Software, GE Life Sciences). The equilibrium dissociation constant (KD) was calculated as the ratio kd/ka. The KD shift fold of mutant was calculated as the ratio Mutant KD/WT KD.

The target in experiment [5] is T4, cynomolgus OX40 expressed on HuT78 cells (HuT78/cynoOX40) (cynomolgus monkey).
T4 construct: whole, on cells; also called cynomolgus monkey OX40
Put plainly: flow cytometry on HuT78/cynoOX40 cells. As to the method:
(§1) Goat anti-Human IgG-FITC (Cat: A0556, Beyotime) was used as a secondary antibody for detection. EC₅₀ values for dose-dependent binding to human and cynomolgus monkey native OX40s were determined by fitting the dose-response data to the four-parameter logistic model with GraphPad Prism.

Experiment [6] deals with T1, full-length human OX40 expressed on …. Put plainly: flow cytometry on live HuT78/OX40 cells; Mean. Here is the method: (§2) To evaluate the binding activity of anti-OX40 antibodies to bind OX40 expressed on the surface of live cells, HuT78 cells were transfected with human OX40 as described in Example 1 to create an OX40 expressing line. Live HuT78/OX40 cells were seeded in 96-well plate and were incubated with a serial dilution of various anti-OX40 antibodies. Goat anti-Human IgG-FITC (Cat: A0556, Beyotime) was used as a secondary antibody to detect antibody binding to the cell surface. EC₅₀ values for dose-dependent binding to human OX40 were determined by fitting the dose-response data to the four-parameter logistic model with GraphPad Prism.

Experiment [7] concerns the target T2, recombinant OX40 protein with a His tag …. The experiment can be described thus: SPR, BIAcore T-200; antibody captured by anti-human IgG, OX40-His flowed; Test 1. From the text:
(§3) The anti-OX40 antibodies were characterized for their binding kinetics and affinity by SPR assays using BIAcore™ T-200 (GE Life Sciences). Briefly, anti-human IgG antibody was immobilized on an activated CM5 biosensorchip (Cat: BR100530, GE Life Sciences). An antibody with human IgG Fc region was flowed over the chip surface and captured by anti-human IgG antibody. Then a serial dilution of recombinant OX40 protein with a His tag (Cat: 10481-H08H, Sino Biological) was flowed over the chip surface and changes in surface plasmon resonance signals were analyzed to calculate the association rates (ka) and dissociation rates (kd) by using the one-to-one Langmuir binding model (BIA Evaluation Software, GE Life Sciences). The equilibrium dissociation constant (KD) was calculated as the ratio kd/ka.

Experiment [8] has the same target. The experiment can be described thus: SPR, BIAcore T-200; antibody captured by anti-human IgG, OX40-His flowed; Mean.
Text: as §3

Experiment [9] concerns the target T1, full-length human OX40 expressed on …. The experiment can be described thus: flow cytometry on live HuT78/OX40 cells; Test 1. Here is the method: as §2
For experiment [10] the target is unchanged. The experiment can be described thus: flow cytometry on HuT78/OX40 cells. Here is the method: as §1
Experiment [11] has the same target. The experiment can be described thus: flow cytometry on live HuT78/OX40 cells; Test 2. Here is the method: as §2
In experiment [12] the target is T2, recombinant OX40 protein with a His tag …. Put plainly: SPR, BIAcore T-200; antibody captured by anti-human IgG, OX40-His flowed; Test 2.
Text: as §3

For experiment [13] the target is unchanged. The experiment can be described thus: Biacore; against 445-2.

B1: 445-2 with K28T in the heavy chain and S24R in the light chain (antibody, human IgG1, V domains shown)
VH: QVQLVQSGAEVKKPGSSVKVSCKASGYTFTSYIIHWVRQAPGQGLEWMGYINPYNEGTRYAQKFQGRVTLTADKSTSTAYMELSSLRSEDTAVYYCARGYYGSSYAMDYWGQGTTVTVSS
VL: DIQMTQSPSSLSASVGDRVTITCRASQGISNYLNWYQQKPGKAIKLLIYDASTLYSGVPSRFSGSGSGTDFTLTISSLQPEDFATYYCQQYSKLPYTFGGGTKVEIK
Regarding B1, in experiment [1], the EC50 came to 0.66 µg/mL and the “Top(MFI)” value was found to be 750 MFI. Moreover, in experiment [2], the Kd was 12.9 nM, the koff was determined as 0.00574 s⁻¹ and the kon came to 444000 M⁻¹ s⁻¹. The “fold increase to the EC50 over 445-2” value in [3] is 1.7 fold.

B2: 445-3 Fab (Fab, V domains shown)
VH: QVQLVQSGAEVKKPGSSVKVSCKASGYKFTSYIIHWVRQAPGQGLEWMGYINPYNEGTRYNQKFQGRVTLTADKSTSTAYMELSSLRSEDTAVYYCARGYYGSSYAMDYWGQGTTVTVSS
VL: DIQMTQSPSSLSASVGDRVTITCRASQGISNYLNWYQQKPDGAIKLLIYDASTLYSGVPSRFSGSGSGTDFTLTISSLQPEDFATYYCQQYSKLPYTFGGGTKVEIK
Regarding B2, the binding result in [4] was “no binding”.

B3: 445-3 (antibody, V domains shown)
VH: QVQLVQSGAEVKKPGSSVKVSCKASGYKFTSYIIHWVRQAPGQGLEWMGYINPYNEGTRYNQKFQGRVTLTADKSTSTAYMELSSLRSEDTAVYYCARGYYGSSYAMDYWGQGTTVTVSS
VL: DIQMTQSPSSLSASVGDRVTITCRASQGISNYLNWYQQKPDGAIKLLIYDASTLYSGVPSRFSGSGSGTDFTLTISSLQPEDFATYYCQQYSKLPYTFGGGTKVEIK
Regarding B3, the EC50 in [5] came to 0.171 µg/mL; in experiment [6] it was 0.328 µg/mL; in experiment [1], 0.462 µg/mL; in experiment [9] it was 0.337 µg/mL; in experiment [10], 0.174 µg/mL; in experiment [11], 0.319 µg/mL. In addition, the “Top(MFI)” value in [6] was 910 MFI; in experiment [1], 990 MFI. Also, the Ka in experiment [7] amounted to 1.09e+08 M⁻¹; in [8], 1.06e+08 M⁻¹; in experiment [12], 1.03e+08 M⁻¹. Further, the Kd in [7] was determined as 9.16 nM; in experiment [2], 8.51 nM; in experiment [8], 9.47 nM; in experiment [12] it was 9.77 nM.

B4: 445-2 with Y27G in the heavy chain and S24R in the light chain (antibody, human IgG1, V domains shown)
VH: QVQLVQSGAEVKKPGSSVKVSCKASGGKFTSYIIHWVRQAPGQGLEWMGYINPYNEGTRYAQKFQGRVTLTADKSTSTAYMELSSLRSEDTAVYYCARGYYGSSYAMDYWGQGTTVTVSS
VL: DIQMTQSPSSLSASVGDRVTITCRASQGISNYLNWYQQKPGKAIKLLIYDASTLYSGVPSRFSGSGSGTDFTLTISSLQPEDFATYYCQQYSKLPYTFGGGTKVEIK
With B4, in experiment [1], the EC50 worked out at 0.755 µg/mL and the “Top(MFI)” value amounted to 630 MFI. In [2], the Kd was 21.5 nM, the koff amounted to 0.00135 s⁻¹ and the kon was 62500 M⁻¹ s⁻¹. Moreover, the “fold increase to the KD over 445-2” value in experiment [13] was 1.7 fold.

What is called EC50 is the concentration that produces a half-maximal response. One may read the Kd as the equilibrium constant for the complex coming apart. Broadly, the koff is the first-order rate constant of dissociation. As a reminder, the kon is a measure of how fast the partners come together.
